Test results published in the supplement of paper PMC11246515.
± gives the standard deviation of the averaged measurements.

Assay: total protein half-life in vivo (active degradation + dilution); higher = more stable protein
[1] = E. coli NCM3722 delta-clpP delta-lon delta-hslV, growth: N-lim chemostat, doubling time 6 h
[2] = E. coli NCM3722 delta-clpP, growth: N-lim chemostat, doubling time 6 h
[3] = E. coli NCM3722 delta-hslV, growth: N-lim chemostat, doubling time 6 h
[4] = E. coli NCM3722 delta-lon, growth: N-lim chemostat, doubling time 6 h
[5] = E. coli NCM3722 delta-smpB, growth: N-lim chemostat, doubling time 6 h
[6] = wild type E. coli NCM3722, growth: C-lim chemostat, doubling time 3 h
[7] = wild type E. coli NCM3722, growth: C-lim chemostat, doubling time 6 h
[8] = wild type E. coli NCM3722, growth: C-lim chemostat, doubling time 12 h
[9] = wild type E. coli NCM3722, growth: N-lim chemostat, doubling time 6 h
[10] = wild type E. coli NCM3722, growth: N-lim chemostat, doubling time 12 h
[11] = wild type E. coli NCM3722, growth: P-lim chemostat, doubling time 6 h
[12] = wild type E. coli NCM3722, growth: P-lim chemostat, doubling time 12 h

Row | Sequence | total protein half-life in vivo [1] [h] | total protein half-life in vivo [2] [h] | total protein half-life in vivo [3] [h] | total protein half-life in vivo [4] [h] | total protein half-life in vivo [5] [h] | total protein half-life in vivo [6] [h] | total protein half-life in vivo [7] [h] | total protein half-life in vivo [8] [h] | total protein half-life in vivo [9] [h] | total protein half-life in vivo [10] [h] | total protein half-life in vivo [11] [h] | total protein half-life in vivo [12] [h]
1 | MTEAMKITLSTQPADARWGEKATYSINNDGITLHLNGADDLGLIQRAARKIDGLGIKHVQLSGEGWDADRCWAFWQGYKAPKGTRKVVWPDLDDAQRQELDNRLMIIDWVRDTINAPAEELGPSQLAQRAVDLISNVAGDRVTYRITKGEDLREQGYMGLHTVGRGSERSPVLLALDYNPTGDKEAPVYACLVGKGITFDSGGYSIKQTAFMDSMKSDMGGAATVTGALAFAITRGLNKRVKLFLCCADNLISGNAFKLGDIITYRNGKKVEVMNTDAEGRLVLADGLIDASAQKPEMIIDAATLTGAAKTALGNDYHALFSFDDALAGRLLASAAQENEPFWRLPLAEFHRSQLPSNFAELNNTGSAAYPAGASTAAGFLSHFVENYQQGWLHIDCSATYRKAPVEQWSAGATGLGVRTIANLLTA | 5.81 ± 0.29 | 5.46 ± 0.11 | 5.706 ± 0.054 | 5.758 ± 0.022 | 5.22 ± 0.19 | 3.45 ± 0.34 | 6.53 ± 0.15 | 10.4 ± 0.37 | 5.61 ± 0.15 | 10.4 ± 1.1 | 5.543 ± 0.044 | 12.5 ± 0.4
2 | MKKYQQLAEQLREQIASGIWQPGDRLPSLRDQVALSGMSFMTVSHAYQLLESQGYIIARPQSGYYVAPQAIKMPKAPVIPVTRDEAVDINTYIFDMLQASRDPSVVPFASAFPDPRLFPLQQLNRSLAQVSKTATAMSVIENLPPGNAELRQAIARRYALQGITISPDEIVITAGALEALNLSLQAVTEPGDWVIVENPCFYGALQALERLRLKALSVATDVKEGIDLQALELALQEYPVKACWLMTNSQNPLGFTLTPQKKAQLVALLNQYNVTLIEDDVYSELYFGREKPLPAKAWDRHDGVLHCSSFSKCLVPGFRIGWVAAGKHARKIQRLQLMSTLSTSSPMQLALVDYLSTRRYDAHLRRLRRQLAERKQRAWQALLRYLPAEVKIHHNDSGYFLWLELPEPLDAGELSLAALTHHISIAPGKMFSTGENWSRFFRFNTAWQWGEREEQAVKQLGKLIQERL | 5.76 ± 0.15 | 6.15 ± 0.15 | 6.01 ± 0.29 | 6.09 ± 0.51 | 5.54 ± 0.38 | 3.02 ± 0.075 | 5.42 ± 0.59 | 10.5 ± 0.68 | 5.45 ± 0.55 | 13.1 ± 2.8 | 6.52 ± 0.27 | 14.3 ± 2.1
3 | MTTKNMNTPPGSTQENEIDLLRLVGELWDHRKFIISVTALFTLIAVAYSLLSTPIYQADTLVQVEQKQGNAILSGLSDMIPNSSPESAPEIQLLQSRMILGKTIAELNLRDIVEQKYFPIVGRGWARLTKEKPGELAISWMHIPQLNGQDQQLTLTVGENGHYTLEGEEFTVNGMVGQRLEKDGVALTIADIKAKPGTQFVLSQRTELEAINALQETFTVSERSKESGMLELTMTGDDPQLITRILNSIANNYLQQNIARQAAQDSQSLEFLQRQLPEVRSELDQAEEKLNVYRQQRDSVDLNLEAKAVLEQIVNVDNQLNELTFREAEISQLYKKDHPTYRALLEKRQTLEQERKRLNKRVSAMPSTQQEVLRLSRDVEAGRAVYLQLLNRQQELSISKSSAIGNVRIIDPAVTQPQPVKPKKALNVVLGFILGLFISVGAVLARAMLRRGVEAPEQLEEHGISVYATIPMSEWLDKRTRLRKKNLFSNQQRHRTKNIPFLAVDNPADSAVEAVRALRTSLHFAMMETENNILMITGATPDSGKTFVSSTLAAVIAQSDQKVLFIDADLRRGYSHNLFTVSNEHGLSEYLAGKDELNKVIQHFGKGGFDVITRGQVPPNPSELLMRDRMRQLLEWANDHYDLVIVDTPPMLAVSDAAVVGRSVGTSLLVARFGLNTAKEVSLSMQRLEQAGVNIKGAILNGVIKRASTAYSYGYNYYGYSYSEKE | 4.74 ± 1.7 |  |  |  |  | 1.74 ± 0.34 | 3.3 | 7.46 |  |  | 1.53 ± 0.24 | 
4 | MSTRLTTLSHTSEGHRVSVHYGYDDKGRLTGERQTVENPETGELLWHHETGHAYNEQGLANRVTPDSLPPVEWLTYGSGYLAGMKLGGTPLLEFTRDRLHRETVRSFGSMAGSNAAYKLTSTYTPAGQLQSQHLNSLVYDRDYGWNDNGDLVRISGPRQTREYGYSATGRLESVRTLAPDLDIRIPYATDPAGNRLPDPELHPDSTLTVWPDNRIAEDAHYVYRHDEYGRLTEKTDRIPAGVIRTDDERTHHYHYDSQHRLVFYTRIQHGEPLVESRYLYDPLGRRMAKRVWRRERDLTGWMSLSRKPEVTWYGWDGDRLTTVQTDTTRIQTVYEPGSFTPLIRVETENGEREKAQRRSLAETLQQEGSENGHGVVFPAELVRLLDRLEEEIRADRVSSESRAWLAQCGLTVEQLARQVEPEYTPARKVHFYHCDHRGLPLALISEDGNTAWRGEYDEWGNQLNEENPHHLHQPYRLPGQQHDEESGLYYNRHRHYDPLQGRYITPDPIGLRGGWNMYQYPLNPIQVIDPMGLDAIENMTSGGLIYAVSGVPGLIAANSITNSAYQFGYDMDAIVGGAHNGAADAMRHCYLMCRMTKTFGSTIADVIGKNHEAAGDRQGQPAKERIMDLKNNTVGIACGDFSAKCSDACIEKYNTGQLFGLDGIKADNPIKAKQGSSDASNY | 3.27 |  |  |  |  |  |  |  |  |  |  | 
5 | MNALLSNPFKERLRKGEVQIGLWLSSTTAYMAEIAATSGYDWLLIDGEHAPNTIQDLYHQLQAVAPYASQPVIRPVEGSKPLIKQVLDIGAQTLLIPMVDTAEQARQVVSATRYPPYGERGVGASVARAARWGRIENYMAQVNDSLCLLVQVESKTALDNLDEILDVEGIDGVFIGPADLSASLGYPDNAGHPEVQRIIETSIRRIRAAGKAAGFLAVAPDMAQQCLAWGANFVAVGVDTMLYSDALDQRLAMFKSGKNGPRIKGSY |  | 2.69 ± 0.27 |  |  | 2.17 | 2.74 | 4.08 | 6.62 ± 0.94 |  | 3.25 |  | 
6 | MKKMLLATALALLITGCAQQTFTVQNKQTAVAPKETITHHFFVSGIGQKKTVDAAKICGGAENVVKTETQQTFVNGLLGFITLGIYTPLEARVYCSK | 6.1 ± 0.25 | 6.87 | 6.21 |  | 6.05 ± 0.44 | 3.42 ± 0.22 |  | 9.62 ± 2.6 | 6.71 ± 0.74 | 12.4 ± 0.78 | 6.65 ± 0.69 | 14.7 ± 0.54
7 | MTQNIRPLPQFKYHPKPLETGAFEQDKTVECDCCEQQTSVYYSGPFYCVDEVEHLCPWCIADGSAAEKFAGSFQDDASIEGVEFEYDEEDEFAGIKNTYPDEMLKELVERTPGYHGWQQEFWLAHCGDFCVFIGYVGWNDIKDRLDEFANLEEDCENFGIRNSDLAKCLQKGGHCQGYLFRCLHCGKLRLWGDFS | 5.27 |  |  |  |  |  |  |  |  |  |  | 
